# T1: 14 amino acid FGE substrate peptide ALCTPSRGSLFTGR
# T1 chain: ALCTPSRGSLFTGR
# T2: Streptomyces coelicolor formylglycine-generating enzyme (Sc-FGE), wild-type, with N-terminal hexahistidine … (Streptomyces coelicolor, UniProt Q9F3C7 1-314)
# T2 construct: Made in E. coli BL21(DE3); also called S. coelicolor FGE; not shown: N-terminal hexahistidine tag and TEV protease cleavage site from the pET151-D/TOPO vector
# T2 sequence (looked up): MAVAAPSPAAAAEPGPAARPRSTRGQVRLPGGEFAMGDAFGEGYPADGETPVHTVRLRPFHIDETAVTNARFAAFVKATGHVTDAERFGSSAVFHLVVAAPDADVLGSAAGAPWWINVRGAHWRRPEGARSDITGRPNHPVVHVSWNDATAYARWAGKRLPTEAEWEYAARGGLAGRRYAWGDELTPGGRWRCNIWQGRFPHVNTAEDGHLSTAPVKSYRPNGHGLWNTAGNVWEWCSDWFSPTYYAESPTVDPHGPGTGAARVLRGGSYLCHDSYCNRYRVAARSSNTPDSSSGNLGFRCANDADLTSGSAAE
# Assays:
# [1] = molecular target: T1, 14 amino acid FGE substrate peptide …
# [2] = molecular target: T2, Streptomyces coelicolor …; test: Michaelis-Menten kinetics from discontinuous RP-HPLC activity assay
binding result [2],Binder,KM [1]
,Catalytic core of H. sapiens formylglycine-generating enzyme with TEV protease site and C-terminal His6 tag (Hs-cFGE) (protein) DRSLEANAPGPVPGERQLAHSKMVPIPAGVFTMGTDDPQIKQDGEAPARRVTIDAFYMDAYEVSNTEFEKFVNSTGYLTEVAAAPWWLPVKGANWRHPEGPDSTILHRPDHPVLHVSWNDAVAYCTWAGKRLPTEAEWEYSCRGGLHNRLFPWGNKLQPKGQHYANIWQGEFPVTNTGEDGFQGTAPVDAFPPNGYGLYNIVGNAWEWTSDWWTVHHSVEETLNPKGPPSGKDRVKKGGSYMCHRSYCYRYRCAARSQNTPDSSASNLGFRCAADRLPTMDKGENLYFQGHHHHHH,KM=0.34 µM
binds,ALCTPSRGSLFTGR (Used as substrate for both the Sc and Hs forms of the enzyme; also called Csub) [14 amino acid FGE substrate peptide ALCTPSRGSLFTGR],
,"Streptomyces coelicolor formylglycine-generating enzyme (Sc-FGE), wild-type, with N-terminal hexahistidine tag and TEV protease cleavage site, activated with … (protein) MAVAAPSPAAAAEPGPAARPRSTRGQVRLPGGEFAMGDAFGEGYPADGETPVHTVRLRPFHIDETAVTNARFAAFVKATGHVTDAERFGSSAVFHLVVAAPDADVLGSAAGAPWWINVRGAHWRRPEGARSDITGRPNHPVVHVSWNDATAYARWAGKRLPTEAEWEYAARGGLAGRRYAWGDELTPGGRWRCNIWQGRFPHVNTAEDGHLSTAPVKSYRPNGHGLWNTAGNVWEWCSDWFSPTYYAESPTVDPHGPGTGAARVLRGGSYLCHDSYCNRYRVAARSSNTPDSSSGNLGFRCANDADLTSGSAAE",KM=96 µM
